Targets include huFcRI; huFcgRIIIA - 158V; huFcgRIIb; muFcgRIII; muFcgRIIb; muFcgRIV; muFcgRI.
What all share (test): SPR
In general terms: SPR reads the build-up and loss of mass on a sensor chip optically.

What is called pKd is −log10 of the Kd, conventionally taken in molar units.

pKd: −log10 of the molar value.

Sequence of muFcgRIV (A0A0B4J1G0 21-203): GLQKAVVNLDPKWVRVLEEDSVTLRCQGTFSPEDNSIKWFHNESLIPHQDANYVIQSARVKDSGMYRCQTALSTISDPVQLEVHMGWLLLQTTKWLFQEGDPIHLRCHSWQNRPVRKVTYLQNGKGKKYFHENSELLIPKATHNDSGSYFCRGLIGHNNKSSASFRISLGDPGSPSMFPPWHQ

As for Control, the pKd was 7.72 in the assay with huFcRI; 6.24 with huFcgRIIIA - 158V; 4.84 with huFcgRIIb; 5.20 in the assay with muFcgRIII; 5.83 with muFcgRIIb.
For Hu IgG1, the results for the pKd in the assay with muFcgRIII, with muFcgRIIb and with muFcgRIV were 5.44, 5.91 and 6.60, respectively.
In the case of Hu IgG1 afuc, the pKd is 5.40 in the assay with muFcgRIII, 5.90 with muFcgRIIb, 7.37 in the assay with muFcgRIV and 6.40 with muFcgRI.

The record behind these values is patent US20120148575A1.
